Laboratory results published in publication PMC8154272, “Discovery of a New, Recurrent Enzyme in Bacterial Phosphonate Degradation: (R)-1-Hydroxy-2-aminoethylphosphonate Ammonia-lyase” (Biochemistry, 2021).

What was measured:
PhnX = PhnX (Vibrio splendidus, UniProt A0ABV4LR11); experiment: 1H NMR, disappearance of PAA; format: biochemical; conditions: PAA generated in situ by PhnW or PbfA; 50 mM potassium phosphate pH 8.0, 100 mM KCl, 5 mM MgCl2, 25 °C
NC[C@H](O)P(=O)(O)O = experiment: purified protein; conditions: TEA-HCl pH 8.0, 25 °C, 5 mM MgCl2, 5 μM PLP, 0.07% BSA, 1,2-elimination

**Q.** For `O=CCP(=O)(O)O` [PAA], which “1H NMR, disappearance of PAA” value (PhnX) is on record?
**A.** Its value is “Addition of PhnX (blue) led to disappearance of PAA”.

**Q.** With PbfA (Vibrio splendidus 12B01) as the molecule, how does the Km (NC[C@H](O)P(=O)(O)O) read?
**A.** Its Km is 430 ± 60 µM.

**Q.** And the kcat (NC[C@H](O)P(=O)(O)O)?
**A.** Its kcat is 5.3 ± 0.3 s^–1.
